Results published in patent US20200362031A1 (BIO TECHNE, published 2020).

Tests used:
[1] = molecular target: T1, Recombinant human VISTA Fc Chimera (human); experiment: AVEXIS screen
T1 construct: also called rhVISTA; VISTA/IgG Fc fusion protein

VISTA(1-195)-COMP-His [2] = molecular target: VISTA(1-195)-COMP-His (human); experiment: SPR (Biacore T200); VISTA-COMP against monomeric VISTA, VSIG3-Fc analyte
Method: (§1) VISTA or VISTA-COMP (each prepared as described in Example 4) was covalently immobilized to the surface of a CM5 chip (GE Healthcare, US) using an anti-poly His antibody. Dilutions of VSIG3 Fc-fusion were then flowed over the surface at concentration ranging between 0.2 nM and 20 μM and the double reference subtracted data fit to a 1:1 Langmuir binding model with Biacore T200 Evaluation Software version 3.1
This increase is largely due to an […].

monomeric VISTA [3] = molecular target: monomeric VISTA (human); experiment: SPR (Biacore T200); monomeric VISTA captured by anti-poly His antibody on CM5 chip, VSIG3-Fc analyte, 1:1 Langmuir fit
Sequence of monomeric VISTA (human) (Q9H7M9 33-194): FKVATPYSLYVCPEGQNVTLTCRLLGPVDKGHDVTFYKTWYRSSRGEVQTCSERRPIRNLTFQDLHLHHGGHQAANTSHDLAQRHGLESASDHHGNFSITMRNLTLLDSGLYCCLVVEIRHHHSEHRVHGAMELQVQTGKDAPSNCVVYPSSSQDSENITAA
Method: as §1

VISTA(1-195)-COMP-His [4] = molecular target: VISTA(1-195)-COMP-His (human); experiment: SPR (Biacore T200); VISTA-COMP captured by anti-poly His antibody on CM5 chip, VSIG3-Fc analyte, 1:1 Langmuir fit
Method: as §1

VISTA(1-195)-COMP-His [5] = molecular target: VISTA(1-195)-COMP-His (human); experiment: SPR (Biacore): VISTA-COMP captured by anti-poly-His antibody on a CM5 chip, VSIG3-Fc analyte 0.2 to 500 nM, 1:1 fit
Method: (§2) FIG. 9A-FIG. 9D show schematics and quantification of the kinetics and affinity of the VISTA-VSIG3 interaction by surface plasmon resonance (Biacore) using monomeric VISTA and multimeric VISTA-COMP. FIG. 9A and FIG. 9C show schematics of the Biacore experiment, where VISTA (FIG. 9A) or VISTA-COMP (FIG. 9C) is captured on the surface of a CM5 chip (GE Healthcare) using an anti-poly His antibody. The analyte, VSIG3-Fc, is flowed over the captured VISTA at concentration ranging between 0.2 nM and 20 μM. FIG. 9B and FIG. 9D show resulting sensorgrams and kinetic fits using a 1:1 model for the monomeric VISTA-VSIG3-Fc interaction (FIG. 9B) and the multimeric VISTA-COMP-VSIG3-Fc interaction (FIG. 9D). For captured monomeric VISTA, the VSIG3-Fc analyte was tested in the range of 0.247 μM to 20 μM. For captured multimeric VISTA-COMP, the VSIG3-Fc analyte was tested in the range of 0.2 nM to 500 nM.
as §1

monomeric VISTA [6] = molecular target: monomeric VISTA (human); experiment: SPR (Biacore): monomeric VISTA captured by anti-poly-His antibody on a CM5 chip, VSIG3-Fc analyte 0.247 to 20 µM, 1:1 fit
Method: as §2, §1

[7] = molecular target: T1, Recombinant human VISTA Fc Chimera; experiment: functional ELISA; rhVISTA coated 2 µg/mL, biotinylated rhVSIG3, streptavidin-HRP
Method: Recombinant human VSIG3 Fc Chimera (“rhVSIG3”—encoded by SEQ ID NO:3; see Table 1) specifically binds to a recombinant human VISTA Fc Chimera (“rhVISTA”—encoded by SEQ ID NO:6; see Table 1) on a functional ELISA binding assay. rhVISTA was coated on the wells of a ELISA microtiter plate at 2 μg/ml in a 100 μL volume. Following blocking of the wells with 1% BSA, varying amounts of rhVSIG3 labeled with biotin was added. Biotin label associated with the plate due to the rhVSIG3-rhVISTA interaction was detected with streptavidin-HRP. […] The non-specific binding is subtracted and in all cases was less than 5% of the total signal.

Sequence of VISTA(1-195)-COMP-His (human) (chain, as listed by the source): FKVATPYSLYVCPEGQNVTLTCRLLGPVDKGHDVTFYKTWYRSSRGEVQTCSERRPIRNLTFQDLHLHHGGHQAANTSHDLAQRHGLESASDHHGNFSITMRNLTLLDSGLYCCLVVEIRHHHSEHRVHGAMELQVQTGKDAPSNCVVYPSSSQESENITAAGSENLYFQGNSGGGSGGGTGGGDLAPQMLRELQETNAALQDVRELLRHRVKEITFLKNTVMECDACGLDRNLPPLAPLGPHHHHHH

| binding result [1] | fold higher affinity than with monomeric VISTA (VISTA(1-195)-COMP-His [2]) [fold] | Kd (monomeric VISTA [3]) [nM] | Kd (VISTA(1-195)-COMP-His [4]) [nM] | Kd (VISTA(1-195)-COMP-His [5]) [nM] | Kd (monomeric VISTA [6]) [nM] | EC50 [7] [µg/mL] | Binder |
| --- | --- | --- | --- | --- | --- | --- | --- |
| no binding |  |  |  |  |  |  | VSIG3(1-245)-COMP-AlkPhos-Flag/His (other, also called penta-VSIG3) LEVSESPGSIQVARGQPAVLPCTFTTSAALINLNVIWMVTPLSNANQPEQVILYQGGQMFDGAPRFHGRVGFTGTMPATNVSIFINNTQLSDTGTYQCLVNNLPDIGGRNIGVTGLTVLVPPSAPHCQIQGSQDIGSDVILLCSSEEGIPRPTYLWEKLDNTLKLPPTATQDQVQGTVTIRNISALSSGLYQCVASNAIGTSTCLLDLQVISPQPRNIGLIAGSENLYFQGNSGGGSGGGTGGGDLAPQMLRELQETNAALQDVRELLRHRVKEITFLKNTVMECDACGLDRNLPPLAPLGPIIPVEEENPDFWNREAAEALGAAKKLQPAQTAAKNLIIFLGDGMGVSTVTAARILKGQKKDKLGPEIPLAMDRFPYVALSKTYNVDKHVPDSGATATAYLCGVKGNFQTIGLSAAARFNQCNTTRGNEVISVMNRAKKAGKSVGVVTTTRVQHASPAGTYAHTVNRNWYSDADVPASARQEGCQDIATQLISNMDIDVILGGGRKYMFRMGTPDPEYPDDYSQGGTRLDGKNLVQEWLAKRQGARYVWNRTELMQASLDPSVTHLMGLFEPGDMKYEIHRDSTLDPSLMEMTEAALRLLSRNPRGFFLFVEGGRIDHGHHESRAYRALTETIMFDDAIERAGQLTSEEDTLSLVTADHSHVFSFGGYPLRGSSIFGLAPGKARDRKAYTVLLYGNGPGYVLKDGARPDVTESESGSPEYRQQSAVPLDEETHAGEDVAVFARGPQAHLVHGVQEQTFIAHVMAFAACLEPYTACDLAPPAGTTDDYKDDDDKHHHHHH |
|  | ~150 | ~2500 | ~17 | 17 | 2520 | ~0.25 | Recombinant human VSIG3 Fc Chimera (Fc fusion, also called rhVSIG3; rhVSIG-3) LEVSESPGSIQVARGQTAVLPCTFTTSAALINLNVIWMVTPLSNANQPEQVILYQGGQMFDGAPRFHGRVGFTGTMPATNVSIFINNTQLSDTGTYQCLVNNLPDIGGRNIGVTGLTVLVPPSAPHCQIQGSQDIGSDVILLCSSEEGIPRPTYLWEKLDNTLKLPPTATQDQVQGTVTIRNISALSSGLYQCVASNAIGTSTCLLDLQVISPQPRNIGLIAGIEGRMDPKSCDKTHTCPPCPAPEAEGAPSVFLFPPKPKDTLMISRTPEVTCVVVDVSHEDPEVKFNWYVDGVEVHNAKTKPREEQYNSTYRVVSVLTVLHQDWLNGKEYKCKVSNKALPAPIEKTISKAKGQPREPQVYTLPPSRDELTKNQVSLTCLVKGFYPSDIAVEWESNGQPENNYKATPPVLDSDGSFFLYSKLTVDKSRWQQGNVFSCSVMHEALHNHYTQKSLSLSPGK |
